Where a chain is given by its changes, count along the chain named. Names may count otherwise.
Assays:
[1] = molecular target: the molecule itself; assay: SEC; HiLoad 16/60 Superdex 200 PG, 25 mM Tris-HCl pH 8.0, 150 mM NaCl with detergent (DDM, UDM, UTM, LMNG, LDAO or FC12), 4°C; elution volume compared with that expected for dimers in detergent micelles
[2] = molecular target: the molecule itself; assay: crystal structure; OmpF crystallised from the FC12-purified BmrA sample with 5 mM ADP; PEG 1500, 2-methyl-2,4-pentanediol, 0.1 M Tris-HCl pH 8.0, 19°C; space group C2; molecular replacement with an OmpF trimer
[3] = molecular target: T1, E504Q BmrA mutant, full-length, His6-tagged (uncleaved) (Bacillus subtilis, UniProt O06967 1-589, E504Q); assay: pull-down; second Ni2+ High Trap chelating column in DDM after partial trypsin cleavage of the N-terminal His6 tag; flow-through against the peak eluted with 250 mM imidazole, fractions on SDS-PAGE; conditions: both partners purified
T1 construct: BmrA, Bacillus subtilis, E504Q mutant; the part of the sample left uncut after a short trypsin digestion with 2 mM ATP and MgCl2; also called tagged, uncleaved monomer; source: E. coli membranes, solubilised with DDM, purified (Ni2+ high trap chelating column, PD-10 desalting); not shown: His6, N-terminal, kept
T1 sequence (looked up): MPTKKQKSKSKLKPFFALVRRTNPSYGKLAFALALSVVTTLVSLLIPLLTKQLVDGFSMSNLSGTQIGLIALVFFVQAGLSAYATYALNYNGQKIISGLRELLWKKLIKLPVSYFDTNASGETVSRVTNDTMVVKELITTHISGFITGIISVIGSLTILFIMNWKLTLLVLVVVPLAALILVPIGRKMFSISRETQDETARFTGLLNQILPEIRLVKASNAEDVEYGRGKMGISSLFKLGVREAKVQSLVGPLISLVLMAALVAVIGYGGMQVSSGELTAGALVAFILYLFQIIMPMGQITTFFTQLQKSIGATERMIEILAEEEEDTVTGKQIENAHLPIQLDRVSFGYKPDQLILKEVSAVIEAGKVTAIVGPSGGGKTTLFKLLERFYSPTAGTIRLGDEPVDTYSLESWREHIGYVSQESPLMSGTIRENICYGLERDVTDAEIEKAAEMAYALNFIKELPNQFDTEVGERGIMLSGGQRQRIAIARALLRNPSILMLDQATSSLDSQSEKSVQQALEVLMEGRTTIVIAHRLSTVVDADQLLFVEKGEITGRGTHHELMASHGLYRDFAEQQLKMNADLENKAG

B1: BmrA (Bacillus multidrug resistance ATP), 6-histidine N-terminal tag (natural protein, Bacillus subtilis, UniProt O06967 1-589, looked up)
chain: T1 sequence (looked up) with Q504E
notes: also called multidrug ABC transporter BmrA; source: E. coli C41(DE3) membranes, solubilised and purified in detergent (Q-Sepharose and Ni column in FC12; or Ni-NTA and SEC in DDM, UDM, UTM, LMNG, LDAO or FC12); not shown: His6, N-terminal, kept
[1]
  stoichiometry N: 2

B2: Outer membrane protein F (OmpF) (natural protein, E. coli (endogenous in C41(DE3)), UniProt P02931 23-362, looked up)
chain: AEIYNKDGNKVDLYGKAVGLHYFSKGNGENSYGGNGDMTYARLGFKGETQINSDLTGYGQWEYNFQGNNSEGADAQTGNKTRLAFAGLKYADVGSFDYGRNYGVVYDALGYTDMLPEFGGDTAYSDDFFVGRVGGVATYRNSNFFGLVDGLNFAVQYLGKNERDTARRSNGDGVGGSISYEYEGFGIVGAYGAADRTNLQEAQPLGNGKKAEQWATGLKYDANNIYLAANYGETRNATPITNKFTNTSGFANKTQDVLLVAQYQFDFGLRPSIAYTKSKAKDVEGIGDVDLVNYFEVGATYYFNKNMSTYVDYIINQIDSDNKLGVGSDDTVAVGIVYQF
notes: Outer membrane protein F of E. coli, identified by mass spectrometry as P02931; structure deposited as PDB 4JFB, solved with a trimer of PDB 2ZFG as search model; The expression strain is C41(DE3), whose OmpF may differ from that entry; also called outer membrane porin OmpF; source: endogenous, E. coli C41(DE3); co-extracted and co-purified with BmrA in FC12, crystallised from that sample
[2]
  stoichiometry N: 3

B3: E504Q BmrA mutant, untagged, cleaved by trypsin (starts at Leu12) (domain or fragment, Bacillus subtilis, UniProt O06967 12-589, looked up)
chain: LKPFFALVRRTNPSYGKLAFALALSVVTTLVSLLIPLLTKQLVDGFSMSNLSGTQIGLIALVFFVQAGLSAYATYALNYNGQKIISGLRELLWKKLIKLPVSYFDTNASGETVSRVTNDTMVVKELITTHISGFITGIISVIGSLTILFIMNWKLTLLVLVVVPLAALILVPIGRKMFSISRETQDETARFTGLLNQILPEIRLVKASNAEDVEYGRGKMGISSLFKLGVREAKVQSLVGPLISLVLMAALVAVIGYGGMQVSSGELTAGALVAFILYLFQIIMPMGQITTFFTQLQKSIGATERMIEILAEEEEDTVTGKQIENAHLPIQLDRVSFGYKPDQLILKEVSAVIEAGKVTAIVGPSGGGKTTLFKLLERFYSPTAGTIRLGDEPVDTYSLESWREHIGYVSQESPLMSGTIRENICYGLERDVTDAEIEKAAEMAYALNFIKELPNQFDTEVGERGIMLSGGQRQRIAIARALLRNPSILMLDQATSSLDSQSEKSVQQALEVLMEGRTTIVIAHRLSTVVDADQLLFVEKGEITGRGTHHELMASHGLYRDFAEQQLKMNADLENKAG
notes: BmrA, Bacillus subtilis, E504Q mutant, cut by trypsin between Lys11 and Leu12; The His6 tag is lost together with residues 1-11; also called untagged BmrA; untagged, cleaved, monomer
[3]
  binding result: binds

From paper PMC4269414, “Stubborn Contaminants: Influence of Detergents on the Purity of the Multidrug ABC Transporter BmrA” (PLoS ONE, 2014)
